Earlier results as cited in patent publication US20260297164A1, “ANTI-FIBROTIC PEPTIDES AND USES THEREOF” (Deackt, Inc., priority 2021, published 2026).

System: CD148
Settings: extracellular proteins; cited from earlier work

B1: syndecan-2: known extracellular protein that can bind to CD148 (protein, UniProt P34741 19-201, looked up)
Syndecan-2: ESRAELTSDKDMYLDNSSIEEASGVYPIDDDDYASASGSGADEDVESPELTTSRPLPKILLTSAAPKVETTTLNIQNKIPAQTKSPEETDKEKVHLSDSERKMDPAEEDTNVYTEKHSDSLFKRTEVLAAVIAGGVIGFLFAIFLILLLVYRMRKKDEGSYDLGERKPSSAAYQKAPTKEFYA
binding to CD148 and activation of PTP activity: can bind to CD148 and activate PTP activity
